Assay results published in patent publication US20090285830A1 (published 2009).
Where a chain is given by its changes, count along the chain named. Names and notes keep the numbering of the source.

B1: humanized 3F12 v4 (antibody, V domains shown)
VH: EVQLVESGGGLVQPGGSLRLSCAASGYTFSSYWIEWVRQAPGKGLEWVGEISPGSGSTNYNEEFKGRATISADNSKNTAYLQMNSLRAEDTAVYYCADGYHGYWGQGTLVTVSS
VL: DIQMTQSPSSLSASVGDRVTITCKSSQSLLYSTNQKNFLAWYQQKPGKAPKLLIYWASTRDSGVPSRFSGSGSGTDFTLTISSLQPEDFATYYCQQYYSYPRTFGQGTKVEIKR
B2: humanized 3F12 v2 (antibody, V domains shown)
VH: B1 VH with I70F, A79L
VL: B1 VL
B3: humanized 3F12 v3 (antibody, V domains shown)
VH: B1 VH with N74K, A79L
VL: B1 VL
B4: humanized 3F12 version 8 (v5 with CDR-H3 G95A) (antibody, V domains shown)
VH: B1 VH with I70F, G99A
VL: DIQMTQSPSSLSASVGDRVTITCKSSQSLLYSTNQKNFLAWYQQKPGKAPKLLIYWASTRDSGVPSRFSGSGSGTDFTLTISSLQPEDFATYYCQQYYSYPRTFGQGTKVEIK
B5: humanized 3F12 version 10 (v5 with CDR-H3 H100A) (antibody, V domains shown)
VH: B1 VH with I70F, H101A
VL: B4 VL
B6: humanized 2C8.v2 (antibody, IgG1, V domains shown)
VH: EVQLVESGGGLVQPGGSLRLSCAASGYTFTSYVIHWVRQAPGKGLEWVGYNNPYNDGTNYNEKFKGRATISSDKSKNTAYLQMNSLRAEDTAVYYCSRPTMLPWFAYWGQGTLVTVSS
VL: DIQMTQSPSSLSASVGDRVTITCRASQAVSSAVAWYQQKPGKAPKLQIYSASHRYTGVPSRFSGSGSGTDFTLTISSLQPEDFATYYCQQHYSTPWTFGQGTKVEIKR
notes: also called Version 2; wild-type 2C8.v2
B7: humanized 2C8.v7 (antibody, V domains shown)
VH: B6 VH
VL: B6 VL with Q47L
B8: humanized 2C8.v16 (antibody, V domains shown)
VH: B6 VH with A68F
VL: B6 VL with Q47L, Q90E, H91S
notes: HC v12 = HC v2 + A67F
B9: humanized 2C8.v12 (antibody, V domains shown)
VH: B6 VH with A68F
VL: B6 VL with Q47L
notes: HC v12 = HC v2 + A67F); also called Version 12
B10: chimeric anti-LTα antibody 2C8 (murine/human chimera) (antibody, human IgG1, kappa, V domains shown)
VH: EVQLQQSGPELVKPGASVKLSCKASGYTFTSYVIHWVKQKPGQGLEWIGYNNPYNDGTNYNEKFKGKATLTSDKSSSTAYMELSSLTSEDSAVYYCSRPTMLPWFAYWGQGTTLTVSA
VL: DIVMTQSHKFMSTSVGDRVSITCKASQAVSSAVAWYQQKPGQSPKLQIYSASHRYTGVPDRFTGSGSGTDFTFTISSVQAEDLAVYYCQQHYSTPWTFGGGTKVEIKR
notes: also called 2C8 chimera; 2C8.chimera

Biological target: T1, recombinant human lymphotoxin-α (LTα), homotrimer LTα3 (human, UniProt P01374 35-205)
T1 construct: One molecule is used for 'LTα' (plate ELISA), 'rhLTα' (BIACORE, phage ELISA) and 'human LTα3'; also called human LTα3; rhLTα
T1 sequence (looked up): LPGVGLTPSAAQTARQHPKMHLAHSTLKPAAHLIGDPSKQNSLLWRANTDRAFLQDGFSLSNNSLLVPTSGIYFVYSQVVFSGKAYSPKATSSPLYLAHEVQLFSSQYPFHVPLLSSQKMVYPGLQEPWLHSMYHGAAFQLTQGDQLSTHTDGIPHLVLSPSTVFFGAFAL
Assay: plate ELISA on coated LTα

Row | Binder | Relative binding (to the original chimera) [x down]
1 | B1 | > 500
2 | B2 | > 1000
3 | B3 | > 1000

Biological target: T2, recombinant human lymphotoxin-α (LTα), homotrimer LTα3 (human) (UniProt P01374)
T2 sequence (looked up): T1 sequence (looked up)
Assay: plate-based ELISA against LTα

Row | Binder | relative binding (EC50 of the variant / EC50 of version 5)
4 | B4 | > 100
5 | B5 | > 100

Biological target: T1, recombinant human lymphotoxin-α (LTα), …
Assay: plate-based ELISA on human LTα, ratio to the chimera

Row | Binder | ELISA IC50 ratio
6 | B6 | 1.7
7 | B7 | 1.2
8 | B8 | 0.6
9 | B9 | 1
10 | B10 | 1
